Measured values published in publication PMC10362797, “Phosphorylation of USP20 on Ser334 by IRAK1 promotes IL-1β-evoked signaling in vascular smooth muscle cells and vascular inflammation” (The Journal of Biological Chemistry, 2023).

Molecular target: T1, TRAF6 (TNFR-associated factor 6), endogenous (mouse (endogenous in mouse SMCs), UniProt P70196 1-530)
T1 construct: TRAF6, E3 ubiquitin ligase, endogenously expressed in mouse aortic smooth muscle cells; source: endogenous, mouse SMC lysate
T1 sequence (looked up): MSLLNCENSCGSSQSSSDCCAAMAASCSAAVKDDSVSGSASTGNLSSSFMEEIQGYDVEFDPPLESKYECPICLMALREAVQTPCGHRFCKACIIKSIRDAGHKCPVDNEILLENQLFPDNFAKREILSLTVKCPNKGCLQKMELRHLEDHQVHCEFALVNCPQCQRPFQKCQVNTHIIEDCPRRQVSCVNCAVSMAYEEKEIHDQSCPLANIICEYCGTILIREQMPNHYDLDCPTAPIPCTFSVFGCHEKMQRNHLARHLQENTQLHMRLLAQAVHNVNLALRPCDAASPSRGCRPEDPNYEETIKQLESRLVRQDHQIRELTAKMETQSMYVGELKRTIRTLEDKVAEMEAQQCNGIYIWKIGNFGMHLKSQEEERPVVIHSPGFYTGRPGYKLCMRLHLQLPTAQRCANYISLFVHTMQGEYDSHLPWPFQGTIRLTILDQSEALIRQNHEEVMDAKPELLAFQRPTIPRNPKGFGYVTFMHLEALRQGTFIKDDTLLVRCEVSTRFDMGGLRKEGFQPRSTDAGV
Assay: co-IP; endogenous TRAF6 immunoprecipitated with anti-TRAF6(D-10) agarose overnight at 4 °C from lysates of mouse SMCs transduced with HA-USP20, serum starved 1 h and stimulated with IL-1β (1 ng/ml, 20 min); lysis buffer 50 mM Hepes pH 7.5, 2 mM EDTA, 250 mM NaCl, 10% glycerol, 0.5% Nonidet P-40; immunoblot for HA
Conditions: partners not purified

B1: HA-tagged USP20-S334A (mouse) (enzyme, UniProt Q8C6M1 1-916, looked up)
chain: MGDARDLCPHLDCIGEVTKEDLLLKSKGTCQSCGVAGPNLWACLQVTCPYVGCGESFADHSSIHAQVKKHNLTVNLTTFRVWCYACEREVFLEQRLAVHLASSSARLSEQDSPPPSHPLKAVPIAVADEGESESEDDDLKPRGLTGMKNLGNSCYMNAALQALSNCPPLTQFFLECGGLVRTDKKPALCKSYQKLISEVWHKKRPSYVVPTSLSHGIKLVNPMFRGYAQQDTQEFLRCLMDQLHEELKEPMVAAVAALTDARDSDSSDTDERRDGDRSPSEDEFLSCDSSSDRGEGDGQGRGGGSSKAEMELLISDEAGRAISEKERMKDRKFAWGQQRTNSEQVDEDADVDTAMASLDEQSREAQPPSPRSTSPCQTPEPDNEAHIRSSSRPCSPVHHHHEGHSKLSSSPPRASPVRMGPSYVLKKAQVPSTGGRRRKEQSYRSVISDVFNGSVLSLVQCLTCDRVSTTVETFQDLSLPIPGKEDLAKLHSAIYQNVPAKPGACGDSYSSQGWLAFIVEYIRRFVVSCTPSWFWGPVVTLEDCLAAFFAADELKGDNMYSCERCKKLRNGVKYCKVLCLPEILCVHLKRFRHEVMYSFKVSSHVSFPLEGLDLRPFLAKECTSQVTTYDLLSVICHHGTAGSGHYIAYCQNVINGQWYEFDDQYVTEVHETVVQNVEAYVLFYRKSSEEAMRERQQVVSLAAMREPSLLRFYVSREWLNKFNTFAEPGPITNHTFLCSHGGIPPNKYHYIDDLVVILPQSVWEHLYSRFGGGPAVNHLYVCSICQVEIEALAKRRRVEIDTFIKLNKAFQAEESPAVIYCISMHWFREWEAFVKGKDSEPPGPIDNSRIAQVKGSGHIQLKQGADCGQISEETWTYLSSLYGGGPEIAIRQSVAQLPDPESLHGEQKIEAETRAL
notes: Mimics unphosphorylated USP20; source: mouse SMCs, transduced with recombinant adenovirus, in protein extract/lysate; not shown: HA, N-terminal, kept
  fold of USP20-WT in TRAF6 immunoprecipitates: ~2.2 fold
